We go through one substance from article PMC3731240.

Holding throughout (experiment): SPR
(SPR reads the build-up and loss of mass on a sensor chip optically.)

Experiment [1] deals with Ghfp^M4 (R288H) (Neisseria gonorrhoeae strain FA1090).
For experiment [2], the target named is Ghfp^M4–5 (R288H and D318G) (Neisseria gonorrhoeae strain FA1090).
Experiment [3] has as its target factor H binding protein (fHbp) V3.45, recombinant, wild type (Neisseria meningitidis) (UniProt E6MV22).

For “complement control protein (CCP) domains 6 and 7 of fH (fH6–7) (domain or fragment)”, the results for the Kd in experiment [1], in experiment [2] and in experiment [3] were 16 nM, 2 nM and 1 nM, respectively.
